# B1: EBV NEC195Δ65 (complex)
# chain 1: MASPEERLLDELNNVIVSFLCDSGSLEVERCSGAHVFSRGSSQPLCTVKLRHGQIYHLEFVYKFLAFKLKNCNYPSSPVFVISNNGLATTLRCFLHEPSGLRSGQSGPCLGLSTDVDLPKNSIIMLGQDDFIKFKSPLVFPAELDLLKSMVVCRAYITEHRTTMQFLVFQAANAQKASRVMDMISDMSQQLSRSG
# chain 2: RSICSRHTRHGVDRSHFSLRDFFRGISANFELGKDFLREMNTPIHVSEAVFLPLSLCTLSPGRCLRLSPFGHSLTLGSHCEICINRSQVHVPQEFSSTQLSFFNNVHKIIPNKTFYVSLLSSSPSAVKAGLSQPSLLYAYLVTGHFCGTICPIFSTNGKGRLIMHLLLQGTSLHIPETCLKLLCENIGPTYELAVDLVGDAFCIKVSPRDTVYEKAVNVDEDAIYEAIKDLECGDELRLQIINYTQLILENKQ
# notes: BFRF1 of Epstein-Barr virus strain B95-8, residues 1-195; BFLF2 of Epstein-Barr virus strain B95-8, residues 66-318; Heterodimer of m1 and m2; used for the NEC/NEC dimers seen in the crystal; also called nuclear egress complex; NEC1-5 (copies in the crystal); source: E. coli Rosetta (DE3), co-expressed, purified (Ni-NTA, glutathione Sepharose, S75 size exclusion); not shown: GST, …
# Assays:
# [1] = target: EBV NEC215-N31S_(BFLF2)/L262F_(BFLF2)-His8 (Epstein-Barr virus (strain B95-8)) (UniProt P03185)
# [2] = target: EBV NEC215-Q43A_(BFRF1)/N31S_(BFLF2)-His8 (Epstein-Barr virus (strain B95-8)) (UniProt P03185)
# [3] = target: EBV NEC215-N31S_(BFLF2)/F267W_(BFLF2)-His8 (Epstein-Barr virus (strain B95-8)) (UniProt P03185)
# [4] = target: EBV NEC215-N121Q_(BFRF1)/N31S_(BFLF2)-His8 (Epstein-Barr virus (strain B95-8)) (UniProt P03185)
# [5] = target: the molecule itself; test: crystal structure; EBV NEC195Δ65; hanging drops at 20°C, protein in 20 mM HEPES pH 8.0, 100 mM NaCl, 0.5 mM TCEP over 25% PEG 3350, 0.1 M Tris-HCl pH 8.5, 0.2 M Li2SO4; space group P4(3)2(1)2, five heterodimers in the asymmetric unit; 3.97 Å
molecule,measurement,setting,value
EBV NEC215-N31S_(BFLF2)/L262F_(BFLF2)-His8 (from UniProt P03185 1-215; P0CK47 1-318) (complex),"in-vitro GUV budding assay (intraluminal vesicles, 1.5 uM NEC, Ni-chelating lipids), against WT EBV NEC215-N31S (BFLF2)-His8 (% of the WT EBV NEC)",[1],< 25
EBV NEC215-Q43A_(BFRF1)/N31S_(BFLF2)-His8 (from UniProt P03185 1-215; P0CK47 1-318) (complex),"in-vitro GUV budding assay (intraluminal vesicles, 1.5 uM NEC, Ni-chelating lipids), against WT EBV NEC215-N31S (BFLF2)-His8 (% of the WT EBV NEC)",[2],< 25
EBV NEC215-N31S_(BFLF2)/F267W_(BFLF2)-His8 (from UniProt P03185 1-215; P0CK47 1-318) (complex),"in-vitro GUV budding assay (intraluminal vesicles, 1.5 uM NEC, Ni-chelating lipids), against WT EBV NEC215-N31S (BFLF2)-His8 (% of the WT EBV NEC)",[3],< 25
EBV NEC215-N121Q_(BFRF1)/N31S_(BFLF2)-His8 (from UniProt P03185 1-215; P0CK47 1-318) (complex),"in-vitro GUV budding assay (intraluminal vesicles, 1.5 uM NEC, Ni-chelating lipids), against WT EBV NEC215-N31S (BFLF2)-His8",[4],2 fold
B1,binding result,[5],binds

# Source: paper PMC9299292, “The nuclear egress complex of Epstein-Barr virus buds membranes through an oligomerization-driven mechanism” (PLoS Pathogens, 2022)
